Test results published in patent publication US20210130436A1 (published 2021).
Where a chain is given by its changes, count along the chain named. Names and notes keep the numbering of the source.

B1: variant CD80 IgV-Fc D46V/V68M/L85Q (Fc fusion, not shown: small tags and cut ends; a dimerising Fc or GST)
chain: VIHVTKEVKEVATLSCGHNVSVEELAQTRIYWQKEKKMVLTMMSGVMNIWPEYKNRTIFDITNNLSIMILALRPSDEGTYECVVQKYEKDAFKREHLAEVTLSVKAD
B2: variant CD80 IgV-Fc Q33K/E35D/M47V/K89E/K93R (Fc fusion, not shown: a dimerising Fc or GST)
chain: B1 chain with Q33K, E35D, V46D, M47V, M68V, Q85L, K89E, K93R
B3: variant CD80 IgV-Fc L85Q (Fc fusion, not shown: small tags and cut ends; a dimerising Fc or GST)
chain: B1 chain with V46D, M68V
B4: variant CD80 IgV-Fc D46V/M47L/L85Q (Fc fusion, not shown: small tags and cut ends; a dimerising Fc or GST)
chain: B1 chain with M47L, M68V
B5: variant CD80 IgV-Fc E35D/D46V/L85Q (Fc fusion, not shown: small tags and cut ends; a dimerising Fc or GST)
chain: B1 chain with E35D, M68V
B6: variant CD80 IgV-Fc D46V/L85Q (Fc fusion, not shown: small tags and cut ends; a dimerising Fc or GST)
chain: B1 chain with M68V
B7: variant CD80 IgV-Fc M47L/L85Q (Fc fusion, not shown: small tags and cut ends; a dimerising Fc or GST)
chain: B1 chain with V46D, M47L, M68V
B8: variant CD80 IgV-Fc D46V/M47L/V68M (Fc fusion, not shown: small tags and cut ends; a dimerising Fc or GST)
chain: B1 chain with M47L, Q85L
B9: variant CD80 IgV-Fc E35D/D46V/V68M/L85Q (Fc fusion, not shown: small tags and cut ends; a dimerising Fc or GST)
chain: B1 chain with E35D
B10: variant CD80 IgV-Fc E35D (Fc fusion, not shown: small tags and cut ends; a dimerising Fc or GST)
chain: B1 chain with E35D, V46D, M68V, Q85L
B11: variant CD80 IgV-Fc D46V/V68M (Fc fusion, not shown: small tags and cut ends; a dimerising Fc or GST)
chain: B1 chain with Q85L
B12: variant CD80 IgV-Fc E35D/D46V/M47L (Fc fusion, not shown: small tags and cut ends; a dimerising Fc or GST)
chain: B1 chain with E35D, M47L, M68V, Q85L
B13: variant CD80 IgV-Fc E35D/M47I/K54R/L85E (Fc fusion, not shown: a dimerising Fc or GST)
chain: B1 chain with E35D, V46D, M47I, K54R, M68V, Q85E
B14: WT CD80 ECD-Fc H22.6 (Fc fusion, not shown: a dimerising Fc or GST)
chain: VIHVTKEVKEVATLSCGHNVSVEELAQTRIYWQKEKKMVLTMMSGDMNIWPEYKNRTIFDITNNLSIVILALRPSDEGTYECVVLKYEKDAFKREHLAEVTLSVKADFPTPSISDFEIPTSNIRRIICSTSGGFPEPHLSWLENGEELNAINTTVSQDPETELYAVSSKLDFNMTTNHSFMCLIKYGHLRVNQTFNWNTTKQEHFPDN
notes: Control; The token H22.6 is not explained

Columns and labels:
[1] = target: T1, human CTLA4 (CTLA-4), full-length, on CHO cells (human, UniProt P16410 36-223); assay: flow cytometry, CHO cells stably expressing CTLA4
T1 construct: also called huCTLA4
T1 sequence (P16410 36-223): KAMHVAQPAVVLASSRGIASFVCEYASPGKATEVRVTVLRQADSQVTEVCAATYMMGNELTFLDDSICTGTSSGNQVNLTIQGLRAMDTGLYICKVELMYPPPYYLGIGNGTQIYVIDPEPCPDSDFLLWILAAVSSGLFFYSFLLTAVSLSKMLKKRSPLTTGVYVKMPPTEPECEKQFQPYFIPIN

[2] = target: T2, human PD-L1, full-length, on CHO cells (human, UniProt Q9NZQ7 19-290); assay: flow cytometry, CHO cells stably expressing PD-L1
T2 construct: also called huPD-L1; CD274
T2 sequence (Q9NZQ7 19-290): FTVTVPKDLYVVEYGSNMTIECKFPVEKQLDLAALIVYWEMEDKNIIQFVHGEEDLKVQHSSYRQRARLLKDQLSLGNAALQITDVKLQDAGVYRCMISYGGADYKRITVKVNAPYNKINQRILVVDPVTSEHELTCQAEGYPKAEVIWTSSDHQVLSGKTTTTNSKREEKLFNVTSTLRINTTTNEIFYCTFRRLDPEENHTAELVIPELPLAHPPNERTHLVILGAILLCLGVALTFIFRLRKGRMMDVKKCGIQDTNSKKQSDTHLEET

[3] = target: T3, human PD-L1 (full-length, expressed on CHO cells) (human, UniProt Q9NZQ7 19-290); assay: flow cytometry, CHO cells expressing huPD-L1, PE anti-human Fc
T3 construct: also called huPD-L1; CD274
T3 sequence (Q9NZQ7 19-290): as above

[4] = target: T4, CD28 (endogenously expressed on Jurkat/IL2 reporter cells) (human, UniProt P10747 19-220); assay: flow cytometry, Jurkat/IL2 reporter cells (endogenous CD28), PE anti-human Fc
T4 construct: Endogenous CD28 of Jurkat cells; also called human CD28

[5] = target: T5, CD28 endogenously expressed on Jurkat/IL2 reporter cells (human, UniProt P10747 19-220); assay: flow cytometry, Jurkat cells (CD28)
T5 construct: also called Jurkats (CD28)

[6] = target: T2, human PD-L1, full-length, on CHO cells; assay: flow cytometry; PD-L1 MFI over CD28 MFI
[7] = target: T1, human CTLA4 (CTLA-4), full-length, on …; assay: flow cytometry, CHO/CTLA4 cells; MFI relative to WT CD80 ECD-Fc
[8] = target: T2, human PD-L1, full-length, on CHO cells; assay: flow cytometry, CHO/PD-L1 cells; MFI relative to WT CD80 ECD-Fc
[9] = target: T5, CD28 endogenously expressed on …; assay: flow cytometry, Jurkat cells (CD28); MFI relative to WT CD80 ECD-Fc
[10] = target: T6, CD28 on Jurkat/IL2 reporter cells (human, UniProt P10747 19-220); assay: flow cytometry, Jurkat cells (CD28)
T6 construct: whole, on cells; Endogenous CD28 of Jurkat cells; also called Jurkats (CD28)

Row | Binder | MFI at 33.3 nM [1] | MFI at 33.3 nM [2] | MFI at 33.3 nM [3] | MFI at 33.3 nM [4] | MFI at 33.3 nM [5] | Ratio of PDL1:CD28 [6] | Fold change to WT CD80 [7] | Fold change to WT CD80 [8] | Fold change to WT CD80 [9] | MFI at 33.3 nM [10]
1 | B1 | 7570 MFI | 4170 MFI |  |  |  |  |  |  |  | 
2 | B2 |  |  | 39100 MFI | 276 MFI |  |  |  |  |  | 
3 | B3 | 3000 MFI | 97 MFI |  |  | 35 MFI |  |  |  |  | 
4 | B4 | 40200 MFI | 5980 MFI |  |  | 567 MFI | 10.5 ratio | 1 fold | 46.7 fold | 0.8 fold | 
5 | B5 | 48000 MFI | 4040 MFI |  |  | 196 MFI | 20.6 ratio | 1.2 fold | 31.6 fold | 0.3 fold | 
6 | B6 | 41900 MFI | 2200 MFI |  |  | 131 MFI | 16.8 ratio | 1 fold | 17.2 fold | 0.2 fold | 
7 | B7 |  | 5800 MFI |  |  | 88.1 MFI |  |  |  |  | 
8 | B8 | 34700 MFI | 28000 MFI |  |  | 2180 MFI | 12.8 ratio | 0.9 fold | 219 fold | 3.1 fold | 
9 | B9 | 32200 MFI | 23600 MFI |  |  |  |  |  |  |  | 
10 | B10 | 42900 MFI | 2580 MFI |  |  | 134 MFI | 19.3 ratio | 1.1 fold | 20.2 fold | 0.2 fold | 
11 | B11 | 5330 MFI | 2270 MFI |  |  | 556 MFI | 4.1 ratio | 0.1 fold | 17.7 fold | 0.8 fold | 
12 | B12 | 45000 MFI | 7990 MFI |  |  |  |  |  |  |  | 
13 | B13 |  |  | 36900 MFI |  |  |  |  |  |  | 
14 | B14 |  |  |  |  |  |  |  |  |  | 43 MFI
